Substitutions are numbered along the chain they refer to.

Consider eleven molecules from patent publication US11814435B2, “Therapeutic antibodies and their uses” (PFIZER INC., priority 2015, dated 2023).

Assay [1] relates to Molp8 LucGFP orthotopic myeloma. Put plainly: Anti-BCMA/CD3 bispecific in combination with standard of care in orthotopic Molp8 tumor model. In kind it is in vivo, NSG mice. The conditions noted are these: FIG. 14; bispecific 0.3 mg/kg; bortezomib 1 mg/kg i.p.; lenalidomide 50 mg/kg oral gavage. As to the method:
In vivo efficacy study of BCMA bispecifics was performed with Molp8, expressing luciferase and GFP, orthotopic model. Two million Molp8 LucGFP cells were injected intravenously through the tail vein into 6-8 weeks old female NSG animals. Intraperitoneal injection of D-luciferin (Regis Technologies, Morton Grove, Ill.) (200 uL per animal at 15 mg/mL), followed by anesthesia with isofluorane and subsequent whole body bioluminescence imaging (BLI) enabled monitoring of tumor burden. Bioluminescent signals emitted by the interaction between luciferase expressed by the tumor cells and luciferin were captured by imaging using an IVIS Spectrum CT (Perkin Elmer, MA) and quantified as total flux (photons/sec) using Living Image 4.4 (Caliper Life Sciences, Alameda, Calif.). The animals were injected through bolus tail vein on day 7 with 20 million expanded T cells as described in Example 18. Two days post T cell injection, mice were imaged and randomized into five groups of seven mice with an average of 17E6 total flux/group: 1) Combo_Rd4_0.6 nM_C29, 0.3 mg/kg, 2) Combo_Rd4_0.6 nM_C29, 0.3 mg/kg and 1 mg/kg bortezomib, 3) Combo_Rd4_0.6 nM_C29, 0.3 mg/kg and 50 mg/kg lenalidomide, 4) 1 mg/kg bortezomib and 50 mg/kg lenalidomide and 5) vehicle. […]

Another assay deals with OPM2 cells. Description: Anti-BCMA/CD3 bispecific with lenalidomide, carfilzomib or doxorubicin, T cell killing of OPM2 (flow cytometry live cells). The conditions noted are these: FIGS. 15A-15C; 1.56 nM carfilzomib, 195 nM lenalidomide, 6.25 nM doxorubicin; three days. In kind it is cell-based. As to the method:
OPM2 and CD3+ T cells were first incubated with the standard of care for two hours at 37°. 1.56 nM carfilzomib and 6.25 nM doxorubicin were diluted in PBS containing 0.02% DMSO. Lenalidomide was diluted in PBS containing 0.1% DMSO at 195 nM. Cells were treated with 10-fold serially diluted bispecific antibody.
A general note: In flow cytometry, cells or beads pass a laser one at a time.

In the next assay the target is T1, BCMA (Homo sapiens, UniProt Q02223).
T1 sequence (Q02223 1-184): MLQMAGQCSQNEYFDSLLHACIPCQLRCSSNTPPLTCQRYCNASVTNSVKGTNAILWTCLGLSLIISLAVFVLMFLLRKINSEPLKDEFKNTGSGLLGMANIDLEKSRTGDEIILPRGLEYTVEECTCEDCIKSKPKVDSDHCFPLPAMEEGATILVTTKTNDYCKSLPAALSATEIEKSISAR
The conditions noted are these: background; read-out: affinity for BCMA; cited from earlier work.

For the next assay, the system named is cynomolgus PBMC. Put plainly: PBMC T cell proliferation by 3H-thymidine incorporation. The conditions noted are these: FIG. 10A/10B, 2 day cultures. In kind it is cell-based. As to the method:
(§1) Human anti-CD3 antibodies were cloned from immunized mouse, expressed as mouse IgG1, and purified by Protein A affinity beads. Human/Cynomolgus peripheral blood mononuclear cells (hu/cyPBMC) were prepared by Ficoll (Density: 1.083 g/mL, GE) density gradient centrifugation from blood filters obtained from local blood banks. Erythrocytes were removed by incubating in LCK buffer (155 mM NH4Cl, 10 mM KHCO3, […]; Gibco) for 3 minutes at room temperature. Cells were centrifuged for 5 min at 600 g. The supernatant containing the lysed erythrocytes was discarded, and the PBMC were washed twice in 50 ml 1×PBS/1% BSA/1 mM EDTA. The pelleted cells were adjusted to 10^7 cells per ml in culture media, X-VIVO-15, serum free media (Lonza,), and the PBMC were seeded as 10^6 (100 ul) per-well to round bottom 96 well tissue culture plates. Selected Abs are 10× serial diluted from 1000 ng to 1 ng per mL for mixing with human PBMC and 5× serial diluted from 5000 ng to 200 ng per mL for mixing with cynomolgus PBMC. For analysis of PBMC T cell proliferation by ^3H-thymidine incorporation, 2 day cultures were performed in triplicate. During the final 16 h of culture ^3H-thymidine ([…]) was added, and incorporation was measured. Cells are harvested and lysed, DNA is captured onto glass-fiber filter. Radioactivity (cpm) as measure for proliferation by counting on a scintillation beta-counter.
For orientation: Incorporation of labelled thymidine or its analogues reports DNA synthesis.

The next assay relates to human PBMC. The description is as above. The class given is cell-based. The conditions noted are these: FIG. 10A/10B, 2 day cultures. Here is the method: as §1
The target in a further assay is bsc_hCD3ed (Homo sapiens, UniProt P07766). Description: Biacore kinetics anti-xCD3e ab/bsc_hCD3ed. In kind it is binding. The conditions noted are these: data fitted from 80 nM-0.64 nM. A general note: In SPR one partner is held on a chip, and binding of the other changes the refractive index at the surface.
A further assay concerns the target hCD3 (human CD3) (Homo sapiens, UniProt P07766). Put plainly: Kinetics and affinity of hCD3/human IgG interactions by SPR (Bio-Rad Proteon XPR36). In kind it is binding. The conditions noted are these: 37° C. As to the method: All experiments were performed on a Bio-Rad Proteon XPR36 surface Plasmon resonance biosensor (Bio-Rad, Hercules, Calif.). An array of anti-CD3 antibodies was prepared using an amine-coupling method on a Bio-Rad GLC Sensor Chip similar to that described in Abdiche, et al., Anal. Biochem. 411, 139-151 (2011). The analysis temperature for the immobilization was 25° C. and the running buffer was HBS-T+(10 mM HEPES, 150 mM NaCl, 0.05% Tween-20, pH 7.4). Channels were activated in the analyte (horizontal) direction by injecting a mixture of 1 mM ECD and 0.25 mM NHS for 3 minutes at a flow rate of 30 μL/min. IgGs were immobilized on the activated spots by injecting them in the ligand (vertical) direction at 20 μg/mL in 10 mM Acetate pH 4.5 buffer for 1.5 minutes at […]. The activated surfaces were blocked by injecting 1M ethanolamine, pH 8.5 in the analyte direction for 3 minutes at 30 μL/min.
The analysis temperature for the hCD3 binding analysis was 37° C. or 25° C. in a running buffer of HBS-T+, supplemented with 1 mg/mL BSA. A kinetic titration method was employed for the interaction analysis as described in Abdiche, et al. The hCD3 (human CD3) analyte was injected in the analyte direction using a series of injections from low to high concentration. The concentrations used were 0.08 nM, 0.4 nM, 2 nM, 10 nM and 50 nM (a 5-membered series, with a 5-fold dilution factor and top concentration of 50 nM). The association time for a given analyte dilution was two minutes. Immediately after the 50 nM hCD3 injection, dissociation was monitored for 2 hours. Prior to the hCD3 analyte injections, buffer was injected 5 times using the same association and dissociation times at the hCD3 analyte cycles to prepare a buffer blank sensorgram for double-referencing purposes (double referencing as described in Myszka, J. Mol. Recognit. 12, 279-284 (1999).
The sensorgrams were double-referenced and fit to a 1:1 Langmuir with mass transport kinetic titration model in BIAevaluation Software version 4.1.1 (GE Lifesciences, Piscataway, N.J.).

Chain of bsc_hCD3ed (P07766 23-126 limits assumed): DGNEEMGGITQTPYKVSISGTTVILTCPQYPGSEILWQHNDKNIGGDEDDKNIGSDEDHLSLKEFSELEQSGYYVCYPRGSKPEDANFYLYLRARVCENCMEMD
Chain of bsc_hCD3ed (P04234 22-105 partner limits assumed): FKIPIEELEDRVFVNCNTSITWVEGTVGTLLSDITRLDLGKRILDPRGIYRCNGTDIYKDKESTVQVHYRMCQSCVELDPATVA
Chain of hCD3 (human CD3) (P07766 23-126 limits assumed): as the sequence (P07766 23-126 limits assumed) above
Chain of hCD3 (human CD3) (P04234 22-105 partner limits assumed): as the sequence (P04234 22-105 partner limits assumed) above

`CC(C)C[C@H](NC(=O)[C@H](Cc1ccccc1)NC(=O)c1cnccn1)B(O)O` [bortezomib, [(1R)-3-methyl-1-[[(2S)-1-oxo-3-phenyl-2-[(pyrazinylcarbonyl)amino]propy-l]amino]butyl]boronic acid]: the “effect of combining on the efficacy of the anti-BCMA/CD3 bispecific antibody” value in assay [1] is recorded as “did not have a negative effect”.

With `CC(C)C[C@H](NC(=O)[C@H](CCc1ccccc1)NC(=O)CN1CCOCC1)C(=O)N[C@@H](Cc1ccccc1)C(=O)N[C@@H](CC(C)C)C(=O)[C@@]1(C)CO1` [carfilzomib], the “effect on the function of Combo_Rd4_0.6 nM_C29-CD3 bispecific antibody on OPM2 cells” value (from here on “effect on the function”) with OPM2 cells is listed as “do not have a negative effect”.

`COc1cccc2c1C(=O)c1c(O)c3c(c(O)c1C2=O)C[C@@](O)(C(=O)CO)C[C@@H]3O[C@H]1C[C@H](N)[C@H](O)[C@H](C)O1` [doxorubicin]: the “effect on the function” value with OPM2 cells is reported as “do not have a negative effect”.

For the molecule “BAFF: B-cell activation factor, ligand of BCMA”, the Kd in the assay with BCMA was 1000 nM.

As for `Nc1cccc2c1CN(C1CCC(=O)NC1=O)C2=O` (stereo not drawn) [lenalidomide], the “effect of combining on the efficacy of the anti-BCMA/CD3 bispecific antibody” value in assay [1] is reported as “did not have a negative effect”. For the same molecule, in the assay on OPM2 cells, the “effect on the function” value was “do not have a negative effect”.

As to “APRIL: a proliferation-inducing ligand, ligand of BCMA”, the Kd in the assay with BCMA is 16 nM.

B1: 2B4: anti-CD3 antibody cloned from mouse hybridoma, expressed as mouse IgG1 (antibody, V domains shown)
VH: EVKLVESGGGLVQPGGSLRLSCATFGFTFTDYYMTWVRQPPGKALEWVAFIRNRARGYTSDHNASVKGRFTISRDNSQNILYLQMNTLRAEDSATYYCARDRPSYYVLDYWGQGTTVTVSS
VL: DIVMSQSPPSLAVSVGDKVTMSCTSSQSLFNSRSRKNYLAWYQQKSGQSPKLLISWASTRESGVPDRFTGSGSGTDFTLTISSVQAEDLAVYYCKQSYDLFTFGSGTKLEIK
modifications: mouse IgG1 constant regions
In the case of B1, the Thymidine incorporation entry with cynomolgus PBMC and in the assay with human PBMC was “had Thymidine incorporation reading” each time. In the assay with bsc_hCD3ed, this molecule showed a ka of 3.74E+05. In addition, the kd with bsc_hCD3ed is listed as 2.74E−03.

B2: 1A4: anti-CD3 antibody cloned from mouse hybridoma, expressed as mouse IgG1 (antibody, V domains shown)
VH: QVQLQQSGPDLVKPGASVEISCKASGYSFTTYYLHWVRQRPGQGLEWIGWIFPGSDNTKYNEKFKGKATLTADTSSSTAYMQLSSLTSEDSAVYFCARNRDYYFDYWGQGTTVTVSS
VL: DIVMSQSPSSLAVSAGEKVTMSCKSSQSLLNSRTRKNYLAWYQQKPGQSPKLLIYWASTRASGVPDRFTGSGSGTDFTLTISSVQAEDLAIYYCKQSFILRTFGGGTKLEIK
modifications: mouse IgG1 constant regions
As to B2, the Thymidine incorporation result in the assay on cynomolgus PBMC and with human PBMC was “had Thymidine incorporation reading” in each case.

B3: 1C10: anti-CD3 antibody cloned from mouse hybridoma, expressed as mouse IgG1 (antibody, V domains shown)
VH: QVQLQQPGSELVRPGASVILSCKASGYTFTSYWMHWVRQRPGQGLEWIGNIYSGGDTINYDEKFKNKAILTVDTSSSTAYMHLSSLTSEDSAVYYCTRDATSRYFFDYWGQGTTVTVSS
VL: B2 VL with A61E, S82D, A86P, I91V, K95T
modifications: mouse IgG1 constant regions
As for B3, the Thymidine incorporation result in the assay with cynomolgus PBMC and with human PBMC was “had Thymidine incorporation reading” throughout. In the assay with bsc_hCD3ed, this molecule registered a ka of 2.96E+05. Further, in the assay with bsc_hCD3ed, the kd is reported as 2.37E−03.

B4: 7A3: anti-CD3 antibody cloned from mouse hybridoma, expressed as mouse IgG1 (antibody, V domains shown)
VH: EVQLQQSGAELVRPGALVKLSCKGSGFNIKDYYIHWVKQRPEQGLEWIGWIDPENGNNKYDPKFQGKASITADTSSNIAYLQLSSLTSEDTAVYYCARNDNYAFDYWGQGTTVTVSS
VL: B2 VL with M4V, T20I, Q44L, W56S, A61E, A86T, I91V, K95M, I99T
modifications: mouse IgG1 constant regions
With B4, the Thymidine incorporation result with cynomolgus PBMC and with human PBMC was “had Thymidine incorporation reading” throughout.

B5: h2B4-VH-yaps VL_TK: anti-CD3 antibody (antibody, V domains shown)
VH: EVQLVESGGGLVQPGGSLRLSCAASGFTFSDYYMTWVRQAPGKGLEWVAFIRNRARGYTSDYAPSVKGRFTISRDNAKNSLYLQMNSLRAEDTAVYYCARDRPSYYVLDYWGQGTTVTVSS
VL: DIVMTQSPDSLAVSLGERATINCKSSQSLFNVRSRKNYLAWYQQKPGQPPKLLISWASTRESGVPDRFSGSGSGTDFTLTISSLQAEDVAVYYCKQSYDLFTFGSGTKLEIK
Take B5: in the assay with hCD3 (human CD3), the “ka huCD3ed @37° C.” value was 250000 M⁻¹ s⁻¹ and the “kd huCD3ed @37° C.” value amounted to 0.023 s⁻¹.
